# T1: PUF4 RNA-binding domain (Saccharomyces cerevisiae, UniProt P25339 537-888)
# T1 sequence: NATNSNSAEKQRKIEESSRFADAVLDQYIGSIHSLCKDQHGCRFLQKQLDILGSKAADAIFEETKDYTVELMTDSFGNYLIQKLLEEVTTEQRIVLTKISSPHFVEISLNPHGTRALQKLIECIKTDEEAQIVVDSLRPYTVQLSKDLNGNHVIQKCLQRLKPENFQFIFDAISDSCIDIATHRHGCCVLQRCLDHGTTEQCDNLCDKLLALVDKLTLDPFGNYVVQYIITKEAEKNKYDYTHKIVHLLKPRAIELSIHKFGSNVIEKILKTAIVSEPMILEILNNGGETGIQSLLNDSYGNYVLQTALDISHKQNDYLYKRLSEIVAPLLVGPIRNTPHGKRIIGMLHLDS
# Biological target: T1, PUF4 RNA-binding domain
# Experiment: Mg; RNA-MaP; 20 mM Na-HEPES pH 7.4, 30 mM KOAc, 0.75 mM MgCl2, 0.1% Tween-20, 5% glycerol, 0.1 mg/mL BSA, 2 mM DTT; 25 C; 0.0125-409.6 nM protein
# Details: tags: N-His6-TEV cleaved; C-SNAP kept, Cy3B-labelled; label: tethered on chip by stalled RNA polymerase
row,Binder,Kd
1,UCUCUUUGUCUUAUUAUCUCUU (ssRNA) [Ia_S1_P5E.1_K5.1_C5.1_H5.1_[A4C]_A5.1_F5.1_T5.1],38.3 nM
2,UCUCUUUGUAUUGCUAUCUCUU (ssRNA) [Ib_S1_P5E.1_K5.1_C5.1_H5.1_A5.1_[A7G]_F5.1_[T8C]_T5.1],15.4 nM
3,UCUCUUUGUAUUUCUAUCUCUU (ssRNA) [Ib_S1_P5E.1_K5.1_C5.1_H5.1_A5.1_[A7T]_F5.1_[T8C]_T5.1],6.46 nM
4,Id_ii_S2_P5E.3_K5.2_C5.2_[C-2T]_[T-1A]_H5.2_A5.1_F5.1_T5.2_[T11A]_[A12C] (ssRNA) RNA: UUUGAUUAAUAUGAUAUCGUUCUUUCUUAUAUAUUAUUAACUUCUUUCUCGAUAUCAUAUUAAUCUUU,9.27 nM
5,Id_ii_S2_P5E.3_K5.2_C5.2_[C-2T]_H5.2_A5.1_F5.1_T5.2_[T11G]_[A12C] (ssRNA) RNA: UUUGAUUAAUAUGAUAUCGUUCUUUCUUUUAUAUUAUUAGCUUCUUUCUCGAUAUCAUAUUAAUCUUU,219 nM
6,Id_ii_S2_P5E.3_K5.2_C5.2_[C-2A]_[T-1A]_H5.2_A5.1_F5.1_T5.2_[T11C]_[A12C] (ssRNA) RNA: UUUGAUUAAUAUGAUAUCGUUCUUUCUAAUAUAUUAUUACCUUCUUUCUCGAUAUCAUAUUAAUCUUU,504 nM
7,Id_ii_S2_P5E.3_K5.2_C5.2_[C-2A]_[T-1C]_H5.2_A5.1_F5.1_T5.2_[T11A]_[A12C] (ssRNA) RNA: UUUGAUUAAUAUGAUAUCGUUCUUUCUACUAUAUUAUUAACUUCUUUCUCGAUAUCAUAUUAAUCUUU,102 nM
8,Id_ii_S2_P5E.3_K5.2_C5.2_[T-1G]_H5.2_A5.1_F5.1_T5.2_[A12T] (ssRNA) RNA: UUUGAUUAAUAUGAUAUCGUUCUUUCUCGUAUAUUAUUAUUUUCUUUCUCGAUAUCAUAUUAAUCUUU,11.9 nM
9,Id_ii_S2_P5E.3_K5.2_C5.2_[C-2T]_H5.2_A5.1_F5.1_T5.2_[A12T] (ssRNA) RNA: UUUGAUUAAUAUGAUAUCGUUCUUUCUUUUAUAUUAUUAUUUUCUUUCUCGAUAUCAUAUUAAUCUUU,130 nM
10,Id_ii_S2_P5E.3_K5.2_C5.2_[C-2T]_H5.2_A5.1_F5.1_T5.2_[T11C]_[A12G] (ssRNA) RNA: UUUGAUUAAUAUGAUAUCGUUCUUUCUUUUAUAUUAUUACGUUCUUUCUCGAUAUCAUAUUAAUCUUU,152 nM
11,Id_ii_S2_P5E.3_K5.2_C5.2_[C-2T]_H5.2_A5.1_F5.1_T5.2_[T11G]_[A12T] (ssRNA) RNA: UUUGAUUAAUAUGAUAUCGUUCUUUCUUUUAUAUUAUUAGUUUCUUUCUCGAUAUCAUAUUAAUCUUU,442 nM
12,Id_ii_S2_P5E.3_K5.2_C5.2_[T-1C]_H5.2_A5.1_F5.1_T5.2_[T11C]_[A12G] (ssRNA) RNA: UUUGAUUAAUAUGAUAUCGUUCUUUCUCCUAUAUUAUUACGUUCUUUCUCGAUAUCAUAUUAAUCUUU,392 nM
13,Id_ii_S2_P5E.3_K5.2_C5.2_[C-2A]_H5.2_A5.1_F5.1_T5.2_[T11C] (ssRNA) RNA: UUUGAUUAAUAUGAUAUCGUUCUUUCUAUUAUAUUAUUACAUUCUUUCUCGAUAUCAUAUUAAUCUUU,207 nM
14,Id_ii_S2_P5E.3_K5.2_C5.2_[C-2A]_H5.2_A5.1_F5.1_T5.2_[T11C]_[A12C] (ssRNA) RNA: UUUGAUUAAUAUGAUAUCGUUCUUUCUAUUAUAUUAUUACCUUCUUUCUCGAUAUCAUAUUAAUCUUU,142 nM
15,Id_ii_S2_P5E.3_K5.2_C5.2_[C-2T]_[T-1A]_H5.2_A5.1_F5.1_T5.2_[T11A]_[A12T] (ssRNA) RNA: UUUGAUUAAUAUGAUAUCGUUCUUUCUUAUAUAUUAUUAAUUUCUUUCUCGAUAUCAUAUUAAUCUUU,21 nM
16,Id_ii_S2_P5E.3_K5.2_C5.2_[C-2T]_[T-1A]_H5.2_A5.1_F5.1_T5.2_[A12T] (ssRNA) RNA: UUUGAUUAAUAUGAUAUCGUUCUUUCUUAUAUAUUAUUAUUUUCUUUCUCGAUAUCAUAUUAAUCUUU,19.2 nM
17,Id_ii_S2_P5E.3_K5.2_C5.2_[C-2A]_[T-1A]_H5.2_A5.1_F5.1_T5.2_[T11C] (ssRNA) RNA: UUUGAUUAAUAUGAUAUCGUUCUUUCUAAUAUAUUAUUACAUUCUUUCUCGAUAUCAUAUUAAUCUUU,672 nM
18,Id_ii_S2_P5E.3_K5.2_C5.2_[C-2A]_H5.2_A5.1_F5.1_T5.2_[A12C] (ssRNA) RNA: UUUGAUUAAUAUGAUAUCGUUCUUUCUAUUAUAUUAUUAUCUUCUUUCUCGAUAUCAUAUUAAUCUUU,122 nM
19,Id_ii_S2_P5E.3_K5.2_C5.2_[C-2T]_H5.2_A5.1_F5.1_T5.2_[T11C]_[A12C] (ssRNA) RNA: UUUGAUUAAUAUGAUAUCGUUCUUUCUUUUAUAUUAUUACCUUCUUUCUCGAUAUCAUAUUAAUCUUU,66.4 nM
20,Id_ii_S2_P5E.3_K5.2_C5.2_[T-1G]_H5.2_A5.1_F5.1_T5.2_[T11G]_[A12T] (ssRNA) RNA: UUUGAUUAAUAUGAUAUCGUUCUUUCUCGUAUAUUAUUAGUUUCUUUCUCGAUAUCAUAUUAAUCUUU,38.1 nM
21,Id_ii_S2_P5E.3_K5.2_C5.2_[C-2T]_[T-1A]_H5.2_A5.1_F5.1_T5.2_[T11A] (ssRNA) RNA: UUUGAUUAAUAUGAUAUCGUUCUUUCUUAUAUAUUAUUAAAUUCUUUCUCGAUAUCAUAUUAAUCUUU,22.6 nM
22,Id_ii_S2_P5E.3_K5.2_C5.2_[C-2A]_[T-1C]_H5.2_A5.1_F5.1_T5.2_[T11C] (ssRNA) RNA: UUUGAUUAAUAUGAUAUCGUUCUUUCUACUAUAUUAUUACAUUCUUUCUCGAUAUCAUAUUAAUCUUU,162 nM

row,Binder,Kd
1,Id_ii_S2_P5E.3_K5.2_C5.2_[T-1G]_H5.2_A5.1_F5.1_T5.2_[T11G]_[A12C] (ssRNA) RNA: UUUGAUUAAUAUGAUAUCGUUCUUUCUCGUAUAUUAUUAGCUUCUUUCUCGAUAUCAUAUUAAUCUUU,28.1 nM
2,Id_ii_S2_P5E.3_K5.2_C5.2_[C-2A]_[T-1A]_H5.2_A5.1_F5.1_T5.2_[T11C]_[A12G] (ssRNA) RNA: UUUGAUUAAUAUGAUAUCGUUCUUUCUAAUAUAUUAUUACGUUCUUUCUCGAUAUCAUAUUAAUCUUU,> 2300 nM
3,Id_ii_S2_P5E.3_K5.2_C5.2_[C-2T]_H5.2_A5.1_F5.1_T5.2_[T11A]_[A12T] (ssRNA) RNA: UUUGAUUAAUAUGAUAUCGUUCUUUCUUUUAUAUUAUUAAUUUCUUUCUCGAUAUCAUAUUAAUCUUU,374 nM
4,Id_ii_S2_P5E.3_K5.2_C5.2_[C-2A]_H5.2_A5.1_F5.1_T5.2_[T11C]_[A12T] (ssRNA) RNA: UUUGAUUAAUAUGAUAUCGUUCUUUCUAUUAUAUUAUUACUUUCUUUCUCGAUAUCAUAUUAAUCUUU,97.6 nM
5,Id_ii_S2_P5E.3_K5.2_C5.2_[T-1C]_H5.2_A5.1_F5.1_T5.2_[T11C]_[A12C] (ssRNA) RNA: UUUGAUUAAUAUGAUAUCGUUCUUUCUCCUAUAUUAUUACCUUCUUUCUCGAUAUCAUAUUAAUCUUU,87.3 nM
6,Id_ii_S2_P5E.3_K5.2_C5.2_[C-2A]_H5.2_A5.1_F5.1_T5.2_[A12T] (ssRNA) RNA: UUUGAUUAAUAUGAUAUCGUUCUUUCUAUUAUAUUAUUAUUUUCUUUCUCGAUAUCAUAUUAAUCUUU,269 nM
7,Id_ii_S2_P5E.3_K5.2_C5.2_[C-2A]_[T-1C]_H5.2_A5.1_F5.1_T5.2_[A12T] (ssRNA) RNA: UUUGAUUAAUAUGAUAUCGUUCUUUCUACUAUAUUAUUAUUUUCUUUCUCGAUAUCAUAUUAAUCUUU,174 nM
8,Id_ii_S2_P5E.3_K5.2_C5.2_[C-2T]_H5.2_A5.1_F5.1_T5.2_[T11C] (ssRNA) RNA: UUUGAUUAAUAUGAUAUCGUUCUUUCUUUUAUAUUAUUACAUUCUUUCUCGAUAUCAUAUUAAUCUUU,131 nM
9,Id_ii_S2_P5E.3_K5.2_C5.2_[T-1G]_H5.2_A5.1_F5.1_T5.2_[T11A]_[A12T] (ssRNA) RNA: UUUGAUUAAUAUGAUAUCGUUCUUUCUCGUAUAUUAUUAAUUUCUUUCUCGAUAUCAUAUUAAUCUUU,12.1 nM
10,Id_ii_S2_P5E.3_K5.2_C5.2_[C-2T]_H5.2_A5.1_F5.1_T5.2_[A12C] (ssRNA) RNA: UUUGAUUAAUAUGAUAUCGUUCUUUCUUUUAUAUUAUUAUCUUCUUUCUCGAUAUCAUAUUAAUCUUU,156 nM
11,Id_ii_S2_P5E.3_K5.2_C5.2_[T-1G]_H5.2_A5.1_F5.1_T5.2_[A12C] (ssRNA) RNA: UUUGAUUAAUAUGAUAUCGUUCUUUCUCGUAUAUUAUUAUCUUCUUUCUCGAUAUCAUAUUAAUCUUU,28.4 nM
12,Id_ii_S2_P5E.3_K5.2_C5.2_[C-2A]_[T-1C]_H5.2_A5.1_F5.1_T5.2_[T11C]_[A12T] (ssRNA) RNA: UUUGAUUAAUAUGAUAUCGUUCUUUCUACUAUAUUAUUACUUUCUUUCUCGAUAUCAUAUUAAUCUUU,98.6 nM
13,Id_ii_S2_P5E.3_K5.2_C5.2_[C-2T]_[T-1A]_H5.2_A5.1_F5.1_T5.2_[A12C] (ssRNA) RNA: UUUGAUUAAUAUGAUAUCGUUCUUUCUUAUAUAUUAUUAUCUUCUUUCUCGAUAUCAUAUUAAUCUUU,10.7 nM
14,Id_ii_S2_P5E.3_K5.2_C5.2_[T-1G]_H5.2_A5.1_F5.1_T5.2_[T11A]_[A12C] (ssRNA) RNA: UUUGAUUAAUAUGAUAUCGUUCUUUCUCGUAUAUUAUUAACUUCUUUCUCGAUAUCAUAUUAAUCUUU,15.5 nM
15,Id_ii_S2_P5E.3_K5.2_C5.2_[C-2A]_[T-1C]_H5.2_A5.1_F5.1_T5.2_[T11A]_[A12T] (ssRNA) RNA: UUUGAUUAAUAUGAUAUCGUUCUUUCUACUAUAUUAUUAAUUUCUUUCUCGAUAUCAUAUUAAUCUUU,207 nM
16,Id_ii_S2_P5E.3_K5.2_C5.2_[C-2A]_H5.2_A5.1_F5.1_T5.2_[T11C]_[A12G] (ssRNA) RNA: UUUGAUUAAUAUGAUAUCGUUCUUUCUAUUAUAUUAUUACGUUCUUUCUCGAUAUCAUAUUAAUCUUU,229 nM
17,Id_ii_S2_P5E.3_K5.2_C5.2_[C-2A]_H5.2_A5.1_F5.1_T5.2_[T11G]_[A12C] (ssRNA) RNA: UUUGAUUAAUAUGAUAUCGUUCUUUCUAUUAUAUUAUUAGCUUCUUUCUCGAUAUCAUAUUAAUCUUU,762 nM
18,Id_ii_S2_P5E.3_K5.2_C5.2_[C-2A]_[T-1C]_H5.2_A5.1_F5.1_T5.2_[T11A] (ssRNA) RNA: UUUGAUUAAUAUGAUAUCGUUCUUUCUACUAUAUUAUUAAAUUCUUUCUCGAUAUCAUAUUAAUCUUU,319 nM
19,UCUCUUUGUAUUCCUAUCUCUU (ssRNA) [Ib_S1_P5E.1_K5.1_C5.1_H5.1_A5.1_[A7C]_F5.1_[T8C]_T5.1],17.5 nM
20,UCUCUUUGUAUUCAUAUCUCUU (ssRNA) [Ib_S1_P5E.1_K5.1_C5.1_H5.1_A5.1_[A7C]_F5.1_[T8A]_T5.1],14 nM
21,UCUCUUUGUAUAUUUCUCUU (ssRNA) [Ic_S1_P3E.1_K3.1_C3.1_H3.1_A3.1_F3.1_[A8T]_T3.1],4.59 nM

# Source: PMC9352680, “A comprehensive thermodynamic model for RNA binding by the Saccharomyces cerevisiae Pumilio protein PUF4”
